# Assay results reported in the DeepSol protein solubility set.
# Assay: soluble on expression in E. coli; label from the status in PepcDB or PDB records
row,Sequence,soluble on expression in E. coli
1,MGSDKIHHHHHHLNNCGMVAWIMTLYTPEKPRGFDLIVIGNDVTFQSGSFGTAEDDLFAAASTYSREHKLPRVNVSVNSGARIGLSTKISKLVKLQLENEDKPEQGFEYIYIDGEHKAQIEGEVVYEELGNGRLKILAVIGAKNEKIGVENLQGSGLIAGETARAYAEVPTYCYVTGRSVGIGAYTARLAHRIVQHKQSHLILTGYEALNTLLGKKVYTSNNQLGGPEVMFRNGVTHAVVDNDLEGIAKVIRWMSFLPTPTEEFPFFSKHGDDCSARDVVIPSDSEQNTYDVRDLIDSKNLSNQTGICDTMSFDEICGDWAKSIVAGRARLCGIPIGVVSSEFRNFSTIVPADPAIDGSQVQNTQRAGQVWYPDSAFKTAEAINDLNKENLPLMIIASLRGFSGGQKDMYDMVLKFGAQIVDALAVYNRPVIVYIPEAGELRGGAWAVLDSKIRPEFIHLVADEKSRGGILEPNAVVGIKFRKPMMMEMMKRSDPTYSKLSSSTEPEAREQLEERYEELSKTYRNASVEFADAHDRWQRMKSVGVVEHVTSLTNSRRLFSELLRNEL,not soluble
2,MGSDKIHHHHHHLNTRDFEYFLALTQTRNFSQTAEQFAVSQPTITTAIKRLEDSFQAQLIIRDRRHHDIGVTSAGKQLAAHAQVILQQLTLAQQEIAWDQTNKIRFGLPPIIGNYFFPKIAPQLIAAGLMPQLQTVEAGSAALLNQIKQGDLDFALLGASGPLQEPDLTISQIGTAPFVIITSESDPLAQKDKVRFAELAMQKFVTLSEAFVHTRAFTWFQQQSAFIPNVVYQTGDVQLLKQMVVQNVGIGFLTNLAINPDDHLAAVKLTDPKQPVFTISIVRRKDRVLTPAMQHFNQILAAN,not soluble
3,MGSDKIHHHHHHLQFAVLSSGSAGNCSLLMTDQHKILMDAGLSGKKTKELLAKVGVAIEDLDMVFLSHDHGDHSGGMGVLMRRYPQLNAFSNTVTWKYLEETGKIGCLPKDQINVIEPGQTKCYGDLEVTAFATSHDAAQPQYYVFSSGGKRLACLTDTGYVSEEVEYEIQDADAYLLEFNYDDLMLRSGPYPWSLQQRVRSDHGHLSNEQAAETLARVISSKTKHVFMAHRSQQNNLNYLARDVAEEVLAARDADVASDLELHDTEPMTPSSLINL,not soluble
4,MGSDKIHHHHHHLRNSIDLTKKIKEKAFEEGFDAVGIAKVPGSSRIKLRTASLERWLQAGHQATMEWMKSPRRKDIENMLQGVKSILAVGLNYYVDTERESKDISIARYGWGKDYHKIIEEKLKKVAKFLETERPNAKWKICVDTSAFLDKAWAEEAGIGWIGKHSNVINSEIGSWMFLGHLLSTEVLEADKPSKPICGECEKCIEACPTKAIEEPFIVNSYKCLAYHTLENRDQELPENIINKMGNWIAGCDICQDVCPWNQKHIPSTTEPDLQPSEWILHTTKQDLLSWDDAKWKESLKNSALKRIKPWMWRRNIDSISKKT,not soluble
5,MGSDKIHHHHHHMAAPIIHGGGITEAAARFGGTPEDWLDLSTGINPCPAALPEIDARVWHRLPDRHVEEAARAAASRYYRTGELMPLPVPGTQAAIQLLPRIAGQRKRVAIFAPTYGEYARVLKAAGLVVDSVTCAGDLQAAHGLAVVVNPNNPTGRRFPPEEILAMAEAMRAHGGLLVVDEAFGDLEPDASVAGHVAANDNLVVFRSFGKYFGLAGLRLGFVVASRTVEDSFRDWLGPWSVSGPALAISAKLMEGDTLGIKVGIAERKAALDAVLFGAGLDVVGGTGLFTLVEHERAYDLHAALCEAHILTRKFDYDPRWLRIGLSPNAQGDRRLAEALNRMGV,not soluble
6,MGSDKIHHHHHHMADNTPKFSQGSTSDTVGYEDFLVDLKTRISNAQLRAVVAVNKELVLLYWQIGRDILHRQQQQGWGAKVIDRLASDLRKAFPDIKGFSSRNLKYMRAFAEAYNDEEFVQQAVAQIPWGHNVRLLDAVKDPAERLWYAQQTIQNGWSRNVLVHQIESKLYQRQGKATTNFNNTLPQPQSELAQQLLKDPYTFDFLNLGEDFLERDLERALIKHIRDFLLELGVGFAFVGSQYHLEVGGEDFYIDLLFYHLRLRCFVVIDLKIEDFKPEFSGKMNFYVSAVDDLLRHPNDQSTIGIILCRSKNKVIAEYSLRDMYKPIGVSTYQLKDNLPEFVQDNLPTIEQLESELETVVLKLEKLDDL,not soluble
7,MGSDKIHHHHHHMAEITSISQFLSTAKTQFQVYDLGRRVQHIDAMAFAQIEALQAPYPYPIQGHAKMALVFWDASEQHFVWFISLPLDERGLLSPAPRSHFIQMILEALGQDLTRTLSEDEQQKMANHPFSFKPTQEKLAVFNALVRRHLGRSASSQYEFAAQYLSGQLPAESWPNVGFQGLADICVRLGELDHAAMVARALKNAPMEVQIALCQCLEHVLVSDEVKDALLAGLEEHRDARLIYFLRALGSQSDASVRAIASLAEKRLLTEEVLICIAGRNWLALRDDVCRKNFLEALALMPQDFFNQVFADIVAIPALRTSMLMAIRDPNRSDALSLAIGGLFKATKS,not soluble
8,MGSDKIHHHHHHMAEKTIVEKLQLTKYKEAVILNQPNGADYFQNLANYEEKLADKQYDLIFDFVETLEELITFVQKVIAENKLAANGYLFFAYPKKGNKKFATYVHRDELMPALKTDEEGYVDGSTLKFTRMVALDETYTVVGLKEAAKLKAKGVKKNNPSADEYADHVPLVAEFLADKGDLQAFYNNLATGYQRVWARYIYSAKQPATQEKRRLEMVDILSQGYKTKDLYRQGKK,not soluble
9,MGSDKIHHHHHHMAEKVDYAALKKGGFMRQKQKGCFSLRIAVVGGNLTAENIKTVAEVAEKYGHGYVHMTSRQGIEIPFIKVEDINVVKEELAKGGVGTGVCGPRVRTVTACQGSEICPSGCIDTYTLAKELDERYFGRELPHKFKFGVTGCQNNCLKAEENDVGIKGGMTVECSHDDCIQCGVCVKACREGALSMEDGRIVIDRDKCNNCARCVKSCPTDAWKGTPGYIVSFGGLFGNHIYKGEQLVPIIRDKETLFRVTDAAISFFEKHANGGERFRLTLQRVGEEEFKKEIQAAYEGK,not soluble
10,MGSDKIHHHHHHMAELSTRYNPAEIETKWYRYWEEKGYFTPKGVGEKFSIVIPPPNITGRIHMGHALNITLQDIVVRYKRMKGYDVLWVPGEDHAGIATQNAVEKFLLQTQGKTREEIGREKFLEITWEWANKYRREIREQIKALGASVDWTRERFTLDEGLSRAVRKVFVELYRKGLIYRGKYIVNWCPRCKTVLSDEEVEHKEHKSKLYYVKYPVKDSDEYIVVATTRPETMLGDTAVAVHPEDERYKNFVGKTLILPLVGREIPVVADKYVDPKFGTGAVKVTPAHDPNDYLIAQRHNLPMIEIFDDNARINENGGKYKGLDRYEAREKIVKDLEEQGFLVKIEDYTHSVGHCYRCDTVIEPKLSDQWFVSTKPLAKRAIEAVENGEIRFFPERWTKVYLNWMYEIRDWCISRQLWWGHRIPVWYCQDCGHLNVSEEDVEKCEKCGSTNLKQDEDVLDTWFSSALWPFSTLGWPEETEDLKRYYPTDLLVTGFDIIFFWVARMIMMGYEFMNDKPFSHVYIHQLVRDKYGRKMSKSLGNGIDPLEVIDEYGADPMRFTLAILAAQGRDIKLDPRYFDAYKKFANKIWNATRFVLMNLEDYKEVPLENLKTVDKWILTRLNKTVEEVTNALENYDFNIAARTIYNFFWDDFCDWYIEASKPRLKTEERNLVQTVLVKVLDASLRLLHPFMPFLTEELWQKLPVAGESITIAKWPEIERELIDETAEKEFTRLMNMVRGVRNVRAEMNLPQSQRVKVYIKGYEVTEEEELLLKTLGNIEEVSFVNEKPPKTATAYVEEEIEAYVDLGGLIDFEKEKERLKQIMEKIQKEIDRLEKKLANKDFVEKAPEEVVEETKEKLNTNRERLARLESILRDLE,not soluble
11,MGSDKIHHHHHHMAEYFQDDLGFRPFNAQVNHCTRDLGFRLYEPSDVLFASFSDESGMRTYVRTLSFILSKAVADILPGSKLFIEHSLSNGYYCQIKNAHMITPGEIVRIKERMESLIVADIPFRAHCERTEEVAAMFRSMGYEDKADLLETKGMPYSRYYDLDGYPDYYYGSLAPSTGYIGLFGLEPYLDGVLLRIPRRDKPEELAPFVPQPMMRQVFADHDRLLDILQVTHVGSLNKAVDRNDISTMVQVSEAMQEKQIAAIADDIAHKYKEGVRVVLISGPSSSGKTTFCKRLQTQLLTNYIRPYGLSLDDYFINREDSPRDESGDYDFESLYALDLPLFNKDLKQMIAGEEVSLPTYDFATGMRVYKGNTIQLKDGDILILEGIHALNPELIPGVPESSTYKIYVSALTAIGLDAHNRIPSTDNRLIRRLVRDYRYRNYSGLGTLRRWQSVRRGEEKWVFPFQENAHVMFNSAMLYELAVLRAYAEPILQAIPRNEPEYAEARRLLRFLSSFRMIPARLLPNNSLMREFLGGSTFHY,not soluble
12,MGSDKIHHHHHHMAFAMKVISQVEAQRKILEEAVSTALELASGKSDGAEVAVSKTTGISVSTRYGEVENVEFNSDGALGITVYHQNRKGSASSTDLSPQAIARTVQAALDIARYTSPDPCAGVADKELLAFDAPDLDLFHPAEVTPDEAIELAARAEQASLKADKRITNTEGGSFNSHYGIKVFGNSHGMLQGYCSTRHSLSSCVIAEENGDMERDYAYTIGRAMADLQAPEWVGAECARRTLSRLSPRKLSTMKAPVIFANEVATGLFGHLVGAIAGGAVYRKSTFLLDSLGKQILPEWLTIEEHPHLLKGLASSPFDSEGVRTERRDIVKDGVLTQWLLTNYSARKLGLKSTGHAGGIHNWRIAGQGLNFEQLLKEMGTGLVVTELMGQGVSGITGDYSRGAAGFWVENGEIQYPVSEITIAGNLKEMWRNIVTVGDDIETRSNIQCGSVLLPEMKIAGQ,not soluble
13,MGSDKIHHHHHHMAGPGCMLMFNRAAKDDATPRMRAGVAVNTGHSLAYQHVIEPSAGYQAKLEAELNPENGRRLSASLIAQILNLGSTSDPDIPAASQLAMAILKTIEAFQISREREPGPEHAPLDVLPLALRSPDADERAHEVCQRIAEHARALWQRMINERSGIPITHDTYLKILQLREPYFSFDFWILDEYQDTTPVVDELVNQQEGQKLYIGDPYQAIYSWRGAINALAGPIDRGLPVHYLTDSFRYNHQIAGMATLILRALGEPVPVRGQPRNFIHRRADDNHTIICRTNLSILVRAGELIVRGSPVFVDGGIPKSTYQRIESALALFQGRPNDVRISTLRQMGSWTAFVDYARGLGERADDMMNLIALVEQYQSQLPVLIDTLKRRLPYRNPRKPGQTTLITAHRSKGRQFAHVELDPDIGLPGDLMIKIQNQAPLQPKERESLHLLYVALTRAELSLELPKRIKENLKLLHGWFNRGTDTAETFTAKTTIPLPKAHAQTAQRARTEAFIRAHRRTD,not soluble
14,MGSDKIHHHHHHMAHQPVGTGSSIEVSVNPGHSRTSGVISHMSDTLRVAIVGDSDLQGAHVAISKSEFSPAADATDYLVLKDKPATISISRPSSQRVVGITTGSTTLIDFPEGTGSPFGINDMVTLRVIDQPYFEAAIGFGTVTKVWNAANIGGHYSTRITVNADTSGIKTDYVSTNWAELRSSFKVSSLGIGVGGKTGALYFQQVQITGE,not soluble
15,MGSDKIHHHHHHMAKAKTQYVCQNCGYISATYLGRCPNCGGWNTLVEETVSSSKSVPRQTAAGSKVKPTRMNDVTITKETRVKTGLDELNRVLGGGVVPGSLVLIGGDPGIGKSTLLLQVSGQLANTGGTVLYVSGEESASQIKMRAGRLGVANSGMYLYPETDMPSIEDVINQMQPDYVVIDSVQTMNVPEMNSAVGSVTQIREVTAELMRIAKSKGVTIFIVGHVTKEGAIAGPKILEHMVDTVLYFEGDMHHTYRILRSVKNRFGSTNEIGIFEMHQDGLQEVANPSEIFLEERLAGATGSAVVVSMEGTRPILVEIQALISPTMYGNAKRTSSGLDHNRVSLIMAVLEKRANLMLQNQDAYLKATGGVKLDEPAIDLAMAVAIASSYRDKEISPTDCFVGEIGLTGEVRRVNRIEERVKEAAKLGFKRIFVPRNNLQGWHAPKDIQVIGVTSIAEALHKVFN,not soluble
